Results reported in patent publication US20230381333A1 (HANMI PHARM, published 2023).
Bridge positions count the residues as written; N and C are the ends. Square brackets hold non-standard residues; d marks the D form. Ends that are not written are not given here. * marks the point of attachment. Acetyl(2-(4-imidazolyl)) = O=C(Cc1c[nH]cn1)*; Aib = CC(C)(N)C(=O)O

T1: human GIP receptor (human, UniProt P48546 22-466)
T1 sequence (looked up): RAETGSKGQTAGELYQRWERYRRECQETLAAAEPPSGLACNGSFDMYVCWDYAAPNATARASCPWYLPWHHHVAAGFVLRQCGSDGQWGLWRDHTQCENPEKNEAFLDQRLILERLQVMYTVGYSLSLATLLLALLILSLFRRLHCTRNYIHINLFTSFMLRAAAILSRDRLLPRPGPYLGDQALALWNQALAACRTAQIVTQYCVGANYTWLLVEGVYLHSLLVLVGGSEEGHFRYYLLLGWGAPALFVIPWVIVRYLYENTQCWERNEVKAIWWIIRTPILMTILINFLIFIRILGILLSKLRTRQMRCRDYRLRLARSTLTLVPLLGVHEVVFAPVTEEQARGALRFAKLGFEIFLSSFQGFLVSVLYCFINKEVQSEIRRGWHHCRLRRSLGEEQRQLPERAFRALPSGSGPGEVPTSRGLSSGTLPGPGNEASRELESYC

B1: triple agonist of SEQ ID NO: 27 (peptide)
peptide: H[Aib]QGTFTSDYSKYLDERACQDFVQWLLDQGGPSSGAPPPS
B2: triple agonist of SEQ ID NO: 31 (peptide)
peptide: H[Aib]QGTFTSDYSKYLDEKACKEFVQWLLAQ
modifications: bridge 16-20
B3: triple agonist of SEQ ID NO: 23 (peptide)
peptide: Y[Aib]QGTFTSDYSKYLDECRAKEFVQWLLAQKGKKNDWKHNIT
modifications: bridge 16-20
B4: triple agonist of SEQ ID NO: 26 (peptide)
peptide: H[Aib]QGTFTSDCSKYLDSRAAQDFVQWLLDGGPSSGAPPPS
B5: triple agonist of SEQ ID NO: 3 (peptide)
peptide: H[Aib]QGTFTSDVSSYLLGQAAKQFIAWLVKGGGPSSGAPPPSC
B6: triple agonist of SEQ ID NO: 24 (peptide)
peptide: Y[Aib]QGTFTSDYSKYLDECRAKEFVQWLKNGGPSSGAPPPS
modifications: bridge 16-20
B7: triple agonist of SEQ ID NO: 32 (peptide)
peptide: H[Aib]QGTFTSDYSKYLDEKACKDFVQWLLDGGPSSGAPPPS
modifications: bridge 16-20
B8: triple agonist of SEQ ID NO: 20 (peptide)
peptide: [Acetyl(2-(4-imidazolyl))]GQGTFTSDLSIQYEEEAQQDFVEWLKDTGPSSGAPPPSHG
B9: triple agonist of SEQ ID NO: 22 (peptide)
peptide: Y[Aib]QGTFTSDYSKCLDEKRAKEFVQWLLDHHPSSGQPPPS
modifications: bridge 16-20
B10: triple agonist of SEQ ID NO: 33 (peptide)
peptide: H[Aib]QGTFTSDYSIAMDEIHQKDFVNWLLAQKC
modifications: bridge 16-20
B11: triple agonist of SEQ ID NO: 28 (peptide)
peptide: H[Aib]QGTFTSDYSKYLDEKRAQEFVCWLLAQKGKKNDWKHNIT
B12: triple agonist of SEQ ID NO: 25 (peptide)
peptide: H[Aib]QGTFTSDCSKYLDERAAQDFVQWLLDGGPSSGAPPPS
B13: triple agonist of SEQ ID NO: 29 (peptide)
peptide: H[Aib]QGTFTSDYSKYLDEKAAKEFVQWLLNTC
modifications: bridge 16-20
B14: triple agonist of SEQ ID NO: 30 (peptide)
peptide: H[Aib]QGTFTSDYSKYLDEKAQKEFVQWLLDTC
modifications: bridge 16-20
B15: triple agonist of SEQ ID NO: 21 (peptide)
peptide: Y[Aib]QGTFTSDYSKYLDECRAKEFVQWLLDHHPSSGQPPPS
modifications: bridge 16-20

The binders below were run against human GCG receptor (human, UniProt P47871 26-477) (assay: cell-based or functional assay).
Sequence of human GCG receptor (P47871 26-477): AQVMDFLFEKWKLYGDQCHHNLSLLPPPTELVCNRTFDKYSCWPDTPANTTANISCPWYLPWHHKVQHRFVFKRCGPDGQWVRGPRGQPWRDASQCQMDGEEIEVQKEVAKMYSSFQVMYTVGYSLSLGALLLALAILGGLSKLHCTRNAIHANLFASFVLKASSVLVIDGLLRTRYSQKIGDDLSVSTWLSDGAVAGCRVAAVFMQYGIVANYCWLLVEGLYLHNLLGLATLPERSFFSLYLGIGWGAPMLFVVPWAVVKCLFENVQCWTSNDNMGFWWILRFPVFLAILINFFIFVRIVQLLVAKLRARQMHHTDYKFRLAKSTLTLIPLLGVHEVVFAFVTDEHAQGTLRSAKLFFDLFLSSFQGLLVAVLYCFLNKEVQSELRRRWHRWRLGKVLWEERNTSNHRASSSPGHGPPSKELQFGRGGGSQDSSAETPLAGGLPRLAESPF

Compared with B1, B2 is higher in “In vitro activity compared to native-type peptide (%), vs Glucagon” value (“In vitro activity … (%), vs Glucagon” for short): 0.8% for the first, 2.2% for the second.

Going from B3 to B4, the “In vitro activity … (%), vs Glucagon” value falls from 9.3% to 0.2%.

Going from B5 to B6, the “In vitro activity … (%), vs Glucagon” value rises from less than 0.1% to 9.3%.

Going from B7 to B8, the “In vitro activity … (%), vs Glucagon” value falls from 1.7% to less than 0.1%.

First: B9
Second: B10
The “In vitro activity … (%), vs Glucagon” value of the first is higher: 140% for the first, less than 0.1% for the second.

Compared with B11, B12 is lower in “In vitro activity … (%), vs Glucagon” value: 1.6% for the first, 0.1% for the second.

Going from B13 to B14, the “In vitro activity … (%), vs Glucagon” value falls from 6% to 0.7%.

For B15, the “In vitro activity … (%), vs Glucagon” value was 267%.

These binders were tested against T1, human GIP receptor (assay: cell-based or functional assay).

Going from B1 to B2, the “In vitro activity compared to native-type peptide (%), vs GIP” value (from here on “In vitro activity … (%), vs GIP”) rises from 0.9% to 2.4%.

B3 and B4 cannot be ordered by “In vitro activity … (%), vs GIP” value: less than 0.1% for the first, less than 0.1% for the second.

B5 and B6 cannot be ordered by “In vitro activity … (%), vs GIP” value: less than 0.1% for the first, less than 0.1% for the second.

Compared with B7, B8 is lower in “In vitro activity … (%), vs GIP” value: 8.8% for the first, less than 0.1% for the second.

First: B9
Second: B10
The “In vitro activity … (%), vs GIP” value of the first is higher: 59.7% for the first, 10.4% for the second.

B11 and B12 cannot be ordered by “In vitro activity … (%), vs GIP” value: less than 0.1% for the first, less than 0.1% for the second.

First: B13
Second: B14
The “In vitro activity … (%), vs GIP” value of the first is lower: less than 0.1% for the first, 0.8% for the second.

With B15 the “In vitro activity … (%), vs GIP” value was 22.7%.

These binders were tested against human GLP-1 receptor (human, UniProt P43220 24-463) (assay: cell-based or functional assay).

Going from B1 to B2, the “In vitro activity compared to native-type peptide (%), vs GLP-1” value (“In vitro activity … (%), vs GLP-1” for short) rises from 83.1% to 135%.

Compared with B3, B4 is higher in “In vitro activity … (%), vs GLP-1” value: 4.01% for the first, 64.5% for the second.

Compared with B5, B6 is higher in “In vitro activity … (%), vs GLP-1” value: 1.8% for the first, 41.2% for the second.

First: B7
Second: B8
The “In vitro activity … (%), vs GLP-1” value of the first is higher: 151% for the first, less than 0.1% for the second.

First: B9
Second: B10
The “In vitro activity … (%), vs GLP-1” value of the first is lower: 20.1% for the first, 24.5% for the second.

First: B11
Second: B12
The “In vitro activity … (%), vs GLP-1” value of the first is lower: 17.2% for the first, 82.6% for the second.

First: B13
Second: B14
The “In vitro activity … (%), vs GLP-1” value of the first is lower: 38.5% for the first, 142% for the second.

For B15, the “In vitro activity … (%), vs GLP-1” value was 17.8%.
